Measurements as given in US20030119027.

Molecular target: T1, SfiI (Streptomyces fimbriatus) (UniProt O52512)
T1 sequence: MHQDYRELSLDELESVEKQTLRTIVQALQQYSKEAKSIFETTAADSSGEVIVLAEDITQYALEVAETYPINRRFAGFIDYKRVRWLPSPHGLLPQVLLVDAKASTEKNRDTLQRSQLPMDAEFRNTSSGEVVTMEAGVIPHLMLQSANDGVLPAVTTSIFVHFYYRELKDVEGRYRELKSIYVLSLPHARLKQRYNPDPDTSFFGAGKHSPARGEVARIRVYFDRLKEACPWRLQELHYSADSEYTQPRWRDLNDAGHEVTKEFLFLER
Assay: cleavage_in_vitro
Details: yield of in vitro translation with T7 RNA polymerase; NEBuffer 2, 10 mM MgCl2, 50 C 60 min

Sequence: GGCCNNNNNGGCC (double strand) [SfiI site (Adenovirus-2 DNA)]
- activity: > 33000 units/ml
